Test results taken from patent US20240091361A1, “T CELL RECEPTORS TARGETING RAS MUTATIONS AND USES THEREOF” (MEMORIAL SLOAN-KETTERING CANCER CENTER, priority 2021, published 2024).

Assays:
[1] = molecular target: T1, HIC1 peptide on HLA-A*11:01 (human); test: cytokine release
T1 peptide: GVPGPDGKGK

[2] = molecular target: T2, HMCN2 peptide on HLA-A*11:01 (human); test: cytokine release
T2 peptide: IKQGADGSGT

[3] = molecular target: T3, DAZP1 peptide on HLA-A*11:01 (human); test: cytokine release
T3 peptide: NNSGADEIGK

[4] = molecular target: T4, DYH8 peptide on HLA-A*11:01 (human); test: cytokine release
T4 peptide: KVAGADGKGI

[5] = molecular target: T5, ADA2C peptide on HLA-A*11:01 (human); test: cytokine release
T5 peptide: GAGGADGQGA

[6] = molecular target: T6, KRAS wild type (10-mer) peptide on HLA-A*11:01 (human); test: cytokine release
T6 peptide: VVVGAGGVGK

[7] = molecular target: T7, CC88B peptide on HLA-A*11:01 (human); test: cytokine release
T7 peptide: LRLGADGAGS

[8] = molecular target: T8, KRAS G12D (9-mer; the same sequence in NRAS G12D and HRAS G12D) peptide on HLA-A*11:01 (human); test: cytokine release
T8 peptide: VVGADGVGK

[9] = molecular target: T9, FMNL1 peptide on HLA-A*11:01 (human); test: cytokine release
T9 peptide: QEAGADTPGK

[10] = molecular target: T10, EFMT2 peptide on HLA-A*11:01 (human); test: cytokine release
T10 peptide: MSSGADGGGG

[11] = molecular target: T11, GTR14; GTR3 (the same peptide, also listed as SEQ ID NO 88) peptide on HLA-A*11:01 (human); test: cytokine release
T11 peptide: QAHGADRSGK

[12] = molecular target: T12, MICU1 peptide on HLA-A*11:01 (human); test: cytokine release
T12 peptide: YFFGADLKGK

[13] = molecular target: T13, PER1 peptide on HLA-A*11:01 (human); test: cytokine release
T13 peptide: PLEGADGGGD

[14] = molecular target: T14, FOXL2 peptide on HLA-A*11:01 (human); test: cytokine release
T14 peptide: AGAGADGYGY

[15] = molecular target: T15, MED13 peptide on HLA-A*11:01 (human); test: cytokine release
T15 peptide: NNDGADGMGI

[16] = molecular target: T16, MARF1 peptide on HLA-A*11:01 (human); test: cytokine release
T16 peptide: LKLGADGSGP

[17] = molecular target: T17, CHADL peptide on HLA-A*11:01 (human); test: cytokine release
T17 peptide: RQCGADKVGK

[18] = molecular target: T18, MYLK peptide on HLA-A*11:01 (human); test: cytokine release
T18 peptide: GGVGADGGGS

[19] = molecular target: T19, TBL3 peptide on HLA-A*11:01 (human); test: cytokine release
T19 peptide: LSSGSDGLVK

[20] = molecular target: T20, NDF2 peptide on HLA-A*11:01 (human); test: cytokine release
T20 peptide: TEQGADGAGR

[21] = molecular target: T21, PBX3 peptide on HLA-A*11:01 (human); test: cytokine release
T21 peptide: GHEGADGDGR

[22] = molecular target: T22, ZN646 peptide on HLA-A*11:01 (human); test: cytokine release
T22 peptide: PEDGADGWGP

[23] = molecular target: T23, GEM (also listed as SEQ ID NOs 82, 106, 130, 141) peptide on HLA-A*11:01 (human); test: cytokine release
T23 peptide: AVFGAGGVGK

[24] = molecular target: T24, KRAS G12D (10-mer; the same sequence in NRAS G12D and HRAS G12D) peptide on HLA-A*11:01 (human); test: multimer staining
T24 peptide: VVVGADGVGK

[25] = molecular target: T25, MEIS1 peptide on HLA-A*11:01 (human); test: cytokine release
T25 peptide: HYGGMDGVGI

[26] = molecular target: T26, COIA1 peptide on HLA-A*11:01 (human); test: cytokine release
T26 peptide: GDPGKDGVGQ

[27] = molecular target: T27, USH1G peptide on HLA-A*11:01 (human); test: cytokine release
T27 peptide: EDGGLDGVGA

[28] = molecular target: T28, SO5A1 peptide on HLA-A*11:01 (human); test: cytokine release
T28 peptide: PVCGSDGITY

[29] = molecular target: T29, SMC5 peptide on HLA-A*11:01 (human); test: cytokine release
T29 peptide: MIVGANGTGK

[30] = molecular target: T30, MEIS2 peptide on HLA-A*11:01 (human); test: cytokine release
T30 peptide: HYGGMDGVGV

[31] = molecular target: T31, EFGM peptide on HLA-A*11:01 (human); test: cytokine release
T31 peptide: EVKGKDGVGA

[32] = molecular target: T32, SOCS7 peptide on HLA-A*11:01 (human); test: cytokine release
T32 peptide: GSGGGDGTGK

[33] = molecular target: T33, BY55 peptide on HLA-A*11:01 (human); test: cytokine release
T33 peptide: RDPGIDGVGE

[34] = molecular target: T34, AGRIN peptide on HLA-A*11:01 (human); test: cytokine release
T34 peptide: PVCGSDGVTY

[35] = molecular target: T35, PRA19 peptide on HLA-A*11:01 (human); test: cytokine release
T35 peptide: KLFISDGCGY

[36] = molecular target: T36, CO8A2 peptide on HLA-A*11:01 (human); test: cytokine release
T36 peptide: GPPGVDGVGV

[37] = molecular target: T37, CO6A3 peptide on HLA-A*11:01 (human); test: cytokine release
T37 peptide: GDDGRDGVGS

[38] = molecular target: T38, CGAT2 peptide on HLA-A*11:01 (human); test: cytokine release
T38 peptide: RNVGANGIGY

[39] = molecular target: T39, SO3A1 peptide on HLA-A*11:01 (human); test: cytokine release
T39 peptide: PVCGADGITY

[40] = molecular target: T40, SUCB2 peptide on HLA-A*11:01 (human); test: cytokine release
T40 peptide: CAIIANGITK

[41] = molecular target: T41, PUR2 peptide on HLA-A*11:01 (human); test: cytokine release
T41 peptide: LASGTDGVGT

[42] = molecular target: T42, NLRP9 peptide on HLA-A*11:01 (human); test: cytokine release
T42 peptide: VLEGPDGIGK

[43] = molecular target: T43, ABCF1 peptide on HLA-A*11:01 (human); test: cytokine release
T43 peptide: CIVGPNGVGK

[44] = molecular target: T44, COBA1 peptide on HLA-A*11:01 (human); test: cytokine release
T44 peptide: GPAGQDGVGG

[45] = molecular target: T45, IBP7 peptide on HLA-A*11:01 (human); test: cytokine release
T45 peptide: PVCGSDGTTY

[46] = molecular target: T46, DNHD1 peptide on HLA-A*11:01 (human); test: cytokine release
T46 peptide: TVLGPNGVGK

[47] = molecular target: T47, CD166 peptide on HLA-A*11:01 (human); test: cytokine release
T47 peptide: NVFEAPTIVK

[48] = molecular target: T48, SALL1 peptide on HLA-A*11:01 (human); test: cytokine release
T48 peptide: SATSPPGSVK

[49] = molecular target: T49, GRIN1 peptide on HLA-A*11:01 (human); test: cytokine release
T49 peptide: GTAGPPSAVK

[50] = molecular target: T50, RSLAA peptide on HLA-A*11:01 (human); test: cytokine release
T50 peptide: AVLGAPGVGK

[51] = molecular target: T51, CFA47 peptide on HLA-A*11:01 (human); test: cytokine release
T51 peptide: MVFDSPTIGK

[52] = molecular target: T52, ABCF1 peptide on HLA-A*11:01 (human); test: cytokine release
T52 peptide: STSPSDKVVK

[53] = molecular target: T53, SEZ6 peptide on HLA-A*11:01 (human); test: cytokine release
T53 peptide: LSLEAPTVGK

[54] = molecular target: T54, CPNS1 peptide on HLA-A*11:01 (human); test: cytokine release
T54 peptide: AVMDSDTTGK

[55] = molecular target: T55, CL056 peptide on HLA-A*11:01 (human); test: cytokine release
T55 peptide: SSQSAPTTGK

[56] = molecular target: T56, SHAN3 peptide on HLA-A*11:01 (human); test: cytokine release
T56 peptide: TTVPSPASGK

[57] = molecular target: T57, LEGL peptide on HLA-A*11:01 (human); test: cytokine release
T57 peptide: SVADSDAVVK

[58] = molecular target: T58, IL17F peptide on HLA-A*11:01 (human); test: cytokine release
T58 peptide: KTLHGPAMVK

[59] = molecular target: T59, K1671 peptide on HLA-A*11:01 (human); test: cytokine release
T59 peptide: TTKSGPALGK

[60] = molecular target: T60, CPNS2 peptide on HLA-A*11:01 (human); test: cytokine release
T60 peptide: SVMDSDTTGK

[61] = molecular target: T61, CK049 peptide on HLA-A*11:01 (human); test: cytokine release
T61 peptide: YSCPPPALVK

[62] = molecular target: T62, IGM peptide on HLA-A*11:01 (human); test: cytokine release
T62 peptide: LTESGPALVK

[63] = molecular target: T63, FLNA peptide on HLA-A*11:01 (human); test: cytokine release
T63 peptide: VTIDGPSKVK

[64] = molecular target: T64, KAD3 peptide on HLA-A*11:01 (human); test: cytokine release
T64 peptide: VIMGAPGSGK

[65] = molecular target: T65, KZF4 peptide on HLA-A*11:01 (human); test: cytokine release
T65 peptide: HSVSSPTVGK

[66] = molecular target: T66, RL7A peptide on HLA-A*11:01 (human); test: cytokine release
T66 peptide: KVAPAPAVVK

[67] = molecular target: T67, BMS1 peptide on HLA-A*11:01 (human); test: cytokine release
T67 peptide: VVMGPPKVGK

B1: TCR 3 (TCR, V domains shown)
Valpha: AQTVTQSQPEMSVQEAETVTLSCTYDTSESDYYLFWYKQPPSRQMILVIRQEAYKQQNATENRFSVNFQKAAKSFSLKISDSQLGDAAMYFCAYRSDGGATNKLIFGTGTLLAVQP
Vbeta: EAQVTQNPRYLITVTGKKLTVTCSQNMNHEYMSWYRQDPGLGLRQIYYSMNVEVTDKGDVPEGYKVSRKEKRNFPLILESPSPNQTSLYFCASSLGAGGYNSPLHFGNGTRLTVT
binding result [1]: no recognition | binding result [2]: no recognition | binding result [3]: no recognition | binding result [4]: no recognition | binding result [5]: no recognition | binding result [6]: no recognition | binding result [7]: no recognition | binding result [8]: recognises | binding result [9]: no recognition | binding result [10]: no recognition | binding result [11]: no recognition | binding result [12]: no recognition | binding result [13]: no recognition | binding result [14]: no recognition | binding result [15]: no recognition | binding result [16]: no recognition | binding result [17]: no recognition | binding result [18]: no recognition | binding result [19]: no recognition | binding result [20]: no recognition | binding result [21]: no recognition | binding result [22]: no recognition | binding result [23]: no recognition | binding result [24]: recognises

B2: TCR 4 (TCR, V domains shown)
Valpha: QKEVEQDPGPLSVPEGAIVSLNCTYSNSAFQYFMWYRQYSRKGPELLMYTYSSGNKEDGRFTAQVDKSSKYISLFIRDSQPSDSATYLCAMGALNSGAGSYQLTFGKGTKLSVIP
Vbeta: KAGVTQTPRYLIKTRGQQVTLSCSPISGHRSVSWYQQTPGQGLQFLFEYFSETQRNKGNFPGRFSGRQFSNSRSEMNVSTLELGDSALYLCASSLSSGTGTEAFFGQGTRLTVV
binding result [25]: no recognition | binding result [26]: no recognition | binding result [27]: no recognition | binding result [28]: no recognition | binding result [29]: no recognition | binding result [30]: no recognition | binding result [6]: no recognition | binding result [31]: no recognition | binding result [32]: no recognition | binding result [33]: no recognition | binding result [34]: no recognition | binding result [35]: no recognition | binding result [36]: no recognition | binding result [37]: no recognition | binding result [38]: no recognition | binding result [39]: no recognition | binding result [40]: no recognition | binding result [41]: no recognition | binding result [42]: no recognition | binding result [43]: no recognition | binding result [44]: no recognition | binding result [45]: no recognition | binding result [23]: no recognition | binding result [46]: no recognition | binding result [24]: recognises

B3: TCR 2 (TCR, V domains shown)
Valpha: AQTVTQSQPEMSVQEAETVTLSCTYDTSENNYYLFWYKQPPSRQMILVIRQEAYKQQNATENRFSVNFQKAAKSFSLKISDSQLGDTAMYFCAFMYPSQGGSEKLVFGKGMKLTVNP
Vbeta: ETGVTQSPTHLIKTRGQQVTLRCSSQSGHNTVSWYQQALGQGPQFIFQYYREEENGRGNFPPRFSGLQFPNYSSELNVNALELDDSALYLCASSSPGFRSYGYTFGSGTRLTVV
binding result [47]: no recognition | binding result [48]: no recognition | binding result [49]: no recognition | binding result [50]: no recognition | binding result [51]: no recognition | binding result [52]: no recognition | binding result [53]: no recognition | binding result [6]: no recognition | binding result [8]: recognises | binding result [54]: no recognition | binding result [55]: no recognition | binding result [56]: no recognition | binding result [57]: no recognition | binding result [58]: no recognition | binding result [59]: no recognition | binding result [60]: no recognition | binding result [61]: no recognition | binding result [62]: no recognition | binding result [63]: no recognition | binding result [64]: no recognition | binding result [65]: no recognition | binding result [66]: no recognition | binding result [67]: no recognition | binding result [23]: no recognition | binding result [24]: recognises
